Test results: article PMC7442955, “Biochemical and functional characterization of a meiosis-specific Pch2/ORC AAA+ assembly” (Life Science Alliance, 2020)

T1: His–Orc1 (subunit of the insect cell–purified ORC) (budding yeast, UniProt P54784 1-914)
T1 construct: Orc1, budding yeast; Stood in the assays as a subunit of m16; source: Tnao38 insect cells, co-expressed with Orc2-6, purified as part of His–ORC
T1 sequence (looked up): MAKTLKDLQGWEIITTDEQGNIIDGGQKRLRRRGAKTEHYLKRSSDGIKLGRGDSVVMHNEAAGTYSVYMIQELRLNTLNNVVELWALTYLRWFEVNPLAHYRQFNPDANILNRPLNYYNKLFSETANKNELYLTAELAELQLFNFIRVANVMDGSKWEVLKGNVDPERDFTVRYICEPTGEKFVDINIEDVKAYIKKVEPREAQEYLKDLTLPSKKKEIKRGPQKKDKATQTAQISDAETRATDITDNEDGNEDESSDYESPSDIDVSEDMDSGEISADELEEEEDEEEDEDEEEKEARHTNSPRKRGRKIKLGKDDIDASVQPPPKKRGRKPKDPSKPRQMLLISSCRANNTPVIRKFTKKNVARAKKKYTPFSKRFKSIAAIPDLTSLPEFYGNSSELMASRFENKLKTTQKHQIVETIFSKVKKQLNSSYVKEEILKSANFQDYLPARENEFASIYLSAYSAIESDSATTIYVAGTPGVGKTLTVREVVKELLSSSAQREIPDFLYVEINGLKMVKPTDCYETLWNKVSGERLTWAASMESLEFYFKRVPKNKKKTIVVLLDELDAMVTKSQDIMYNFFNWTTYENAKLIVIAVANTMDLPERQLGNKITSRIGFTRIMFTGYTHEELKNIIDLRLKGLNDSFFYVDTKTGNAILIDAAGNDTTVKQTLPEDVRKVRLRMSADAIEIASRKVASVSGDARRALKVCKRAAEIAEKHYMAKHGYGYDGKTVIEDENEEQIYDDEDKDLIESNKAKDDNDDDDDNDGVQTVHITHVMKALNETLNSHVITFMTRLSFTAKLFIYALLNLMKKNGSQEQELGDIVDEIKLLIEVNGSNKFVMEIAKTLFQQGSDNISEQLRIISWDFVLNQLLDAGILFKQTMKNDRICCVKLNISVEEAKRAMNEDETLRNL

T2: 6xHis–Hop1 (budding yeast, UniProt P20050 1-605)
T2 construct: Hop1, HORMA domain protein, substrate of Pch2; source: E. coli BL21 RIPL, purified (TALON, heparin, SEC); not shown: 6xHis, N-terminal, kept
T2 sequence (looked up): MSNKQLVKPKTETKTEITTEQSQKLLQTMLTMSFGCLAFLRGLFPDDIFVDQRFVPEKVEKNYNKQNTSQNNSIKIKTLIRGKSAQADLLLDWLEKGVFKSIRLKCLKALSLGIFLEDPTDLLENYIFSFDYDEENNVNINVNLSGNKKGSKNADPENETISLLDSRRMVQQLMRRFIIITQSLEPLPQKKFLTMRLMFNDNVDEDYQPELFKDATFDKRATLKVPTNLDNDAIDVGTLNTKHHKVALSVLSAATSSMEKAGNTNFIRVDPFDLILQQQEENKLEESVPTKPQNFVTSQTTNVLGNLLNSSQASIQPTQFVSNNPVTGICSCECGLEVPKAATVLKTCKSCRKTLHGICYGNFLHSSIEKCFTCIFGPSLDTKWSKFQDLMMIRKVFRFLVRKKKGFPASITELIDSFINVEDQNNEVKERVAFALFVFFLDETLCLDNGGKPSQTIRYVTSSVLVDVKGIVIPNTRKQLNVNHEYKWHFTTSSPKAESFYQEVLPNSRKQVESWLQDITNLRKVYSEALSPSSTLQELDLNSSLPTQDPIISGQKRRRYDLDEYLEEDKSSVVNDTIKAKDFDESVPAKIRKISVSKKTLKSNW

B1: His–MBP–Pch2 (natural protein, budding yeast, UniProt P38126 1-564, looked up)
chain: MSYIVDLQVRGSSLRVIKCMFREDEQISSLHSGSDSKQNSNKKLGEFLNLLKAVVKRKLESFPKDRLKTSIITGQELMREGQGSIEIKDPPTEAQQHLIRSLAKVLLHQFSSINGKVNTVNEGQDNLFLSLFVKKISIEQQSTSHVSIKLNFHEKINLGQHIDSILDSEETNESDTYHMGSVDEFIIYPFCCLEEQDELKNGSILSTEFDKIDLELDEDDGFEGETLNNCINSVGNFDIPLSKQTLNLVNISYLPGTTFEGQWESLYFGNNIKERLYSYATISLKIARFKQTGDSNQEDITTLITNNKLLLVHGPPGTGKTTLCKALCQKLSVRREFSDGSDTIDTNYKGIIIELSCARIFSKWFGESSKNISIVFKDIEELLKVNEGRGIFICLLIDEVEAIASSRTNLSSRNESTDGIRVVNTLLTQLDRLKKYHNFLALATSNLLDSLDDAFVDRADGVFYVGNPTAEGILHILKVCIEEMITSGIILFHARSTGVKFFNKYQDILRKIAIKCSTVDISGRTIRKLPLMCLSEYFRTFPVDDDEFVLALAMSARKLSAARK
notes: Pch2, budding yeast; from codon-optimized cDNA in a pLIB–His–MBP vector; Apparent hexamer by SEC, with a minor fraction that appears monomeric; also called purified Pch2; full-length Pch2; source: Tnao38 insect cells (baculovirus), purified (TALON, amylose, SEC); not shown: His, N-terminal, kept; MBP, N-terminal, kept

Experiments:
[1] = target: B1; test: cross-linking; XL-MS: 0.75 μM His–MBP–Pch2 with 1.5 μM His–ORC, 30 mM HEPES pH 7.5, 150 mM NaCl, 2 mM TCEP, 90 min at 4°C; 3 mM DSBU, 25°C, 1 h; MeroX, 2% FDR; details: both partners purified
[2] = target: T1, His–Orc1 (subunit of the insect …); test: as above; details: both partners purified
[3] = target: the molecule itself; test: SEC; single purified proteins: His–MBP–Pch2 (2 μM), His–MBP–Pch2-243-564 (2 μM), His–MBP–Pch2-2-144 (6 μM; Superdex 200 5/150 GL); 30 mM HEPES pH 7.5, 150 mM NaCl, 3% glycerol, 2 mM TCEP, 1 mM MgCl2
[4] = target: T3, ORC (Orc1-6, with Orc1 carrying a CBP tag) purified from budding yeast (budding yeast, UniProt P54784 1-914; P32833 1-620; P54790 1-616; P54791 1-529; P50874 1-479; P38826 …); test: pull-down; ORC from budding yeast bound to calmodulin beads, His–MBP–Pch2 added for 1 h on ice; 30 mM HEPES pH 7.5, 200 mM NaCl, 2 mM CaCl2; with or without MgCl2 and ADP, ATP or ATP analogs; Coomassie staining; details: both partners purified
T3 construct: Orc1, budding yeast; Orc2, budding yeast; Orc3, budding yeast; Orc4, budding yeast; Orc5, budding yeast; Orc6, budding yeast; also called budding yeast ORC (CBP–Orc1); budding yeast–purified ORC; source: purified from α-factor–arrested vegetative budding yeast cells (yGV3358), concentrated on calmodulin beads; copies: + + + + +
T3 sequence (P32833 whole entry, chain 2 of 4): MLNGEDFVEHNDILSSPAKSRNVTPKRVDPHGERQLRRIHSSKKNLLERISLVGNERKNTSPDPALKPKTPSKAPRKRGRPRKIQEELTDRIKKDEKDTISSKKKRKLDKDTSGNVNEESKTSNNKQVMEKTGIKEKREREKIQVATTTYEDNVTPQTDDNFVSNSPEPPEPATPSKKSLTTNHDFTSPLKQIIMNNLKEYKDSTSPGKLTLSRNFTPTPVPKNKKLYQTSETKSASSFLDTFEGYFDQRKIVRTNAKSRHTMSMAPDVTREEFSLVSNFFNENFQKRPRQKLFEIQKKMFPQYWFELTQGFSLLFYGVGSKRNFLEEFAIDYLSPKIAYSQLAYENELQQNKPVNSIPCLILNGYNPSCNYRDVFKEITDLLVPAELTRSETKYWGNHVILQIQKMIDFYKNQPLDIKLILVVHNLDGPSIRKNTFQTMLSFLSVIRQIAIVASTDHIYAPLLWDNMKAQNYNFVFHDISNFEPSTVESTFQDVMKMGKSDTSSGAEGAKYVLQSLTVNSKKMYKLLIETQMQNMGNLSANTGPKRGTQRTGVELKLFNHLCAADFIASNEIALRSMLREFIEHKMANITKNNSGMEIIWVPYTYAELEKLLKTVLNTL
T3 sequence (P54790 whole entry, chain 3 of 4): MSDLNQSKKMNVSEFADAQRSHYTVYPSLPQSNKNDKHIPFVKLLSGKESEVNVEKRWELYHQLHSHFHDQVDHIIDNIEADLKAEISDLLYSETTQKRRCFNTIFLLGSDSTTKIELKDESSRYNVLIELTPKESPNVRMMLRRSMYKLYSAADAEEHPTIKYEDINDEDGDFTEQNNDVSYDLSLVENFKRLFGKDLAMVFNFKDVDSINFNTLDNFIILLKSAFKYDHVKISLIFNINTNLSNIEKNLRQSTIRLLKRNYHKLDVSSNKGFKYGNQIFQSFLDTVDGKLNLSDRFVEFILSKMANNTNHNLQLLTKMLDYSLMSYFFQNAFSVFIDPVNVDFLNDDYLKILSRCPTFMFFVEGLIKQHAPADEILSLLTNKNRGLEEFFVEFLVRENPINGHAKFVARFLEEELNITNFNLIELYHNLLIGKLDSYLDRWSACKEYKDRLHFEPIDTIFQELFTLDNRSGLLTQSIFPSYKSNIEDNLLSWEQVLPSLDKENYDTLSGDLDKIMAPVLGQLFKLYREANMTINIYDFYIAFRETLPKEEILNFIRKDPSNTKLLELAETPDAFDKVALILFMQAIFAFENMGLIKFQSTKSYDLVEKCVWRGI
T3 sequence (P54791 whole entry, chain 4 of 4): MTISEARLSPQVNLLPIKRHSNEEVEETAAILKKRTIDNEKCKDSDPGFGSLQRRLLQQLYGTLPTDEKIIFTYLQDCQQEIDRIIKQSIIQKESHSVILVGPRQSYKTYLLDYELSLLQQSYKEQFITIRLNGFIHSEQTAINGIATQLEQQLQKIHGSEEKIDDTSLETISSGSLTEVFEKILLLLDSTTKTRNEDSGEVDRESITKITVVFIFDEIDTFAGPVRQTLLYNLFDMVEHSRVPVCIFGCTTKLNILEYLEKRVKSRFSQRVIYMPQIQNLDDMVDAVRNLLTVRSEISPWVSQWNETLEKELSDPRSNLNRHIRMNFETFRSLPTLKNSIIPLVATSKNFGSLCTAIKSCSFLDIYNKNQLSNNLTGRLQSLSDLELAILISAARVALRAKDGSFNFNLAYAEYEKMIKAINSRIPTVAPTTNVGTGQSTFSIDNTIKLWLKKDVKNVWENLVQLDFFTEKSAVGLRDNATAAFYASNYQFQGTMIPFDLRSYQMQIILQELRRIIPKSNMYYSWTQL
T3 sequence (P38826 whole entry, chain 6 of 4): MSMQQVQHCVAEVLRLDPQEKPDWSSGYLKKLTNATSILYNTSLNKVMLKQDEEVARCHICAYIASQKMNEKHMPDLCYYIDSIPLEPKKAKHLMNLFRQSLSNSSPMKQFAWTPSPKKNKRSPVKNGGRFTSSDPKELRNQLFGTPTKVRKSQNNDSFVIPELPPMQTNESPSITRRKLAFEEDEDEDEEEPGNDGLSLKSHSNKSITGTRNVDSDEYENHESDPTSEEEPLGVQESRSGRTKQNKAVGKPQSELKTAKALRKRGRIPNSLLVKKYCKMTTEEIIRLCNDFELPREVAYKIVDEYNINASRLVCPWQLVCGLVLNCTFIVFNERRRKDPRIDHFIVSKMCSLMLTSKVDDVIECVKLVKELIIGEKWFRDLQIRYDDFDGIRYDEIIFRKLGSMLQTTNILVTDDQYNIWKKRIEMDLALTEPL

[5] = target: T2, 6xHis–Hop1; test: pull-down; His–MBP–Pch2 (1 μM, as hexamer) on amylose beads, 6 μM Hop1 added, 90 min on ice; 50 mM Tris pH 7.5, 50 mM NaCl, 10 mM imidazole, 0.1% Tween-20, 1 mM MgCl2; with or without 200 μM ATP or ATPγS; Coomassie staining; details: both partners purified
[6] = target: T4, His–ORC (His–Orc1, Orc2-6) purified from insect cells (budding yeast, UniProt P54784 1-914; P32833 1-620; P54790 1-616; P54791 1-529; P50874 1-479; P38826 …, a fraction of Orc6 phosphorylated (double band, collapsed by λ-phosphatase); sites not stated); test: pull-down; His–MBP–Pch2 (1 μM as hexamer) or fragments (6 μM of 2-144) on amylose beads, 1 μM ORC added, 90 min on ice; 30 mM HEPES pH 7.5, 150 mM NaCl, 10 mM imidazole, 0.1% Tween-20, 10 mM MgCl2; Coomassie staining or Western blot (α-MBP, α-ORC); details: both partners purified
T4 construct: Orc1, budding yeast; Orc2, budding yeast; Orc3, budding yeast; Orc4, budding yeast; Orc5, budding yeast; Orc6, budding yeast; Total size about 414 kD as printed; also called His–Orc1-6; origin recognition complex; source: Tnao38 insect cells coinfected with two baculoviruses, purified (His-tag resin, SEC); copies: + + + + +
T4 sequence (P32833 whole entry, chain 2 of 4, the tested form may be a part): as the sequence (P32833 whole entry, chain 2 of 4) above
T4 sequence (P54790 whole entry, chain 3 of 4, the tested form may be a part): as the sequence (P54790 whole entry, chain 3 of 4) above
T4 sequence (P54791 whole entry, chain 4 of 4, the tested form may be a part): as the sequence (P54791 whole entry, chain 4 of 4) above
T4 sequence (P38826 whole entry, chain 6 of 4, the tested form may be a part): as the sequence (P38826 whole entry, chain 6 of 4) above

[7] = target: T5, dephosphorylated His–ORC (λ-phosphatase treated) (budding yeast, UniProt P54784 1-914; P32833 1-620; P54790 1-616; P54791 1-529; P50874 1-479; P38826 …); test: as above; details: both partners purified
T5 construct: Orc1, budding yeast; as in m16; Orc2, budding yeast; Orc3, budding yeast; Orc4, budding yeast; Orc5, budding yeast; Orc6, budding yeast; as in m16, dephosphorylated (single band); also called dephosphorylated ORC; source: Tnao38 insect cells, purified, then treated with λ-phosphatase at 4°C overnight; copies: + + + + +
T5 sequence (P32833 whole entry, chain 2 of 4): as the sequence (P32833 whole entry, chain 2 of 4) above
T5 sequence (P54790 whole entry, chain 3 of 4): as the sequence (P54790 whole entry, chain 3 of 4) above
T5 sequence (P54791 whole entry, chain 4 of 4): as the sequence (P54791 whole entry, chain 4 of 4) above
T5 sequence (P38826 whole entry, chain 6 of 4): as the sequence (P38826 whole entry, chain 6 of 4) above

Row | Binder | binding result [1] | binding result [2] | stoichiometry N [3] | binding result [4] | binding result [5] | binding result [6] | binding result [7]
1 | Orc5 (subunit of the insect cell–purified ORC) (natural protein, budding yeast, UniProt P50874 1-479, looked up, Orc5, budding yeast; Stood in the assays as a subunit of m16; source: Tnao38 insect cells, co-expressed, purified as part of His–ORC) MNVTTPEVAFREYQTNCLASYISADPDITPSNLILQGYSGTGKTYTLKKYFNANPNLHAVWLEPVELVSWKPLLQAIARTVQYKLKTLYPNIPTTDYDPLQVEEPFLLVKTLHNIFVQYESLQEKTCLFLILDGFDSLQDLDAALFNKYIKLNELLPKDSKINIKFIYTMLETSFLQRYSTHCIPTVMFPRYNVDEVSTILVMSRCGELMEDSCLRKRIIEEQITDCTDDQFQNVAANFIHLIVQAFHSYTGNDIFALNDLIDFKWPKYVSRITKENIFEPLALYKSAIKLFLSTDDNLSENGQGESAITTNRDDLENSQTYDLSIISKYLLIASYICSYLEPRYDASIFSRKTRIIQGRAAYGRRKKKEVNPRYLQPSLFAIERLLAIFQAIFPIQGKAESGSLSALREESLMKANIEVFQNLSELHTLKLIATTMNKNIDYLSPKVRWKVNVPWEIIKEISESVHFNISDYFSDIHE | binds | – | – | – | – | – | –
2 | B1 | – | binds | 6 | binds | binds | binds | binds
3 | His–MBP–Pch2-2-144 (domain or fragment, budding yeast, UniProt P38126 2-144, looked up, Pch2, budding yeast, part of the NH2-terminal domain; Monomer by SEC; also called minimal NH2-terminal fragment of Pch2; source: Tnao38 insect cells (baculovirus), purified (TALON, amylose, SEC); not shown: His, N-terminal, kept; MBP, N-terminal, kept) SYIVDLQVRGSSLRVIKCMFREDEQISSLHSGSDSKQNSNKKLGEFLNLLKAVVKRKLESFPKDRLKTSIITGQELMREGQGSIEIKDPPTEAQQHLIRSLAKVLLHQFSSINGKVNTVNEGQDNLFLSLFVKKISIEQQSTS | – | – | – | – | – | binds | –
